Experiment [1] addresses amyloid β monomers (length not stated) (UniProt P05067). Put plainly: assay not stated.
In experiment [2] the target is amylospheroid 42 (Homo sapiens (Human)) (UniProt P05067). Put plainly: SPR (BIAcore 3000), amylospheroid coupled to CM5 chip, antibody in solution.
For experiment [3], the target named is amylospheroid 40 (Homo sapiens (Human)) (UniProt P05067). The description is as above.

pKd: −log10 of the molar value.

As for “commercialized N-terminal antibodies 82E1 (IBL) (antibody)”, in experiment [1], the reactivity with amyloid β monomers relative to reactivity with amylospheroid was 2 fold.

One may read the pKd as −log10 of the Kd, conventionally taken in molar units. Take “commercialized anti-amyloid β antibody 4G8”: the negative-log Kd (pKd) in experiment [2] is 8.49; in experiment [3] it was 8.77.

“commercialized anti-amyloid β antibody 6E10” had a pKd in experiment [3] of 8.54.

These data come from patent US8168188.
